Source: paper PMC8612984 (Journal of immunology (Baltimore, Md. : 1950), 2021)
“And” between values parts separate entries of the source, which are not always exact repeats. Equal entries are not always repeated.

T1: C1r-CCP2-SP, recombinant autoactivated domain truncation of human C1r (human, UniProt P00736 375-703)
T1 sequence: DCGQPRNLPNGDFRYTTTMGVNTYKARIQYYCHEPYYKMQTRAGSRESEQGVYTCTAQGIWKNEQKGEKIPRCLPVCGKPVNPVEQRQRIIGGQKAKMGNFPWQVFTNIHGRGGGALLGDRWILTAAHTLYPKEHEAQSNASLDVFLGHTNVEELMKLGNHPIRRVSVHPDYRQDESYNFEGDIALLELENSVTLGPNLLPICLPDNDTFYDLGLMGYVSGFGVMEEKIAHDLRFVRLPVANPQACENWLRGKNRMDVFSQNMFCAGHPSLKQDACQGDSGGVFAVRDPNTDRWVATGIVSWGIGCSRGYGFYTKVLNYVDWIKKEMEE


Molecular target: T1, C1r-CCP2-SP, recombinant autoactivated …
Test: SEC-MALS + other: SEC-SAXS

| Binder | stoichiometry N |
| --- | --- |
| BBK32-C (C-terminal domain of B. burgdorferi BBK32), wild type (domain or fragment) SNRYQSYLEGVKYNVDSAIQTITKIYNTYTLFSTKLTQMYSTRLDNFAKAKAKEEAAKFTKEDLEKNFKTLLNYIQVSVKTAANFVYINDTHAKRKLENIEAEIKTLIAKIKEQSNLYEAYKAIVTSILLMRDSLKEVQGIID | 1 |

Molecular target: T1, C1r-CCP2-SP, recombinant autoactivated …
Test: SPR

| Binder | Kd | koff | kon |
| --- | --- | --- | --- |
| BBK32-C R337A (residues 206–354) (domain or fragment, B. burgdorferi B31, UniProt O50835 206-354, looked up) SNRYQSYLEGVKYNVDSAIQTITKIYNTYTLFSTKLTQMYSTRLDNFAKAKAKEEAAKFTKEDLEKNFKTLLNYIQVSVKTAANFVYINDTHAKRKLENIEAEIKTLIAKIKEQSNLYEAYKAIVTSILLMADSLKEVQGIIDKNGVWY | 0.78 ± 0.13 nM | 8.8e-05 s⁻¹ | 110000 M⁻¹ s⁻¹ |
| BBK32-C (C-terminal domain of B. burgdorferi BBK32), wild type (domain or fragment) SNRYQSYLEGVKYNVDSAIQTITKIYNTYTLFSTKLTQMYSTRLDNFAKAKAKEEAAKFTKEDLEKNFKTLLNYIQVSVKTAANFVYINDTHAKRKLENIEAEIKTLIAKIKEQSNLYEAYKAIVTSILLMRDSLKEVQGIID | 0.45 nM and 0.78 nM | 4.5e-05 s⁻¹ and 6.3e-05 s⁻¹ | 100000 M⁻¹ s⁻¹ and 81000 M⁻¹ s⁻¹ |
| BBK32-C R248A (domain or fragment, B. burgdorferi B31, UniProt O50835 206-348, looked up) SNRYQSYLEGVKYNVDSAIQTITKIYNTYTLFSTKLTQMYSTALDNFAKAKAKEEAAKFTKEDLEKNFKTLLNYIQVSVKTAANFVYINDTHAKRKLENIEAEIKTLIAKIKEQSNLYEAYKAIVTSILLMRDSLKEVQGIID | 5.8 ± 0.1 nM | 0.0013 s⁻¹ | 220000 M⁻¹ s⁻¹ |
| BBK32-C T242A (domain or fragment, B. burgdorferi B31, UniProt O50835 206-348, looked up) SNRYQSYLEGVKYNVDSAIQTITKIYNTYTLFSTKLAQMYSTRLDNFAKAKAKEEAAKFTKEDLEKNFKTLLNYIQVSVKTAANFVYINDTHAKRKLENIEAEIKTLIAKIKEQSNLYEAYKAIVTSILLMRDSLKEVQGIID | 0.96 nM | 9.9e-05 s⁻¹ | 100000 M⁻¹ s⁻¹ |
| BBK32-C K327A (domain or fragment, B. burgdorferi B31, UniProt O50835 206-348, looked up) SNRYQSYLEGVKYNVDSAIQTITKIYNTYTLFSTKLTQMYSTRLDNFAKAKAKEEAAKFTKEDLEKNFKTLLNYIQVSVKTAANFVYINDTHAKRKLENIEAEIKTLIAKIKEQSNLYEAYAAIVTSILLMRDSLKEVQGIID | 120 ± 50 nM | 0.0075 s⁻¹ | 97000 M⁻¹ s⁻¹ |
| BBK32-C Y323A-E324A (domain or fragment, B. burgdorferi B31, UniProt O50835 206-348, looked up) SNRYQSYLEGVKYNVDSAIQTITKIYNTYTLFSTKLTQMYSTRLDNFAKAKAKEEAAKFTKEDLEKNFKTLLNYIQVSVKTAANFVYINDTHAKRKLENIEAEIKTLIAKIKEQSNLAAAYKAIVTSILLMRDSLKEVQGIID | 480 ± 51 nM | 0.046 s⁻¹ | 100000 M⁻¹ s⁻¹ |
| BBK32-C K327A-T331A (domain or fragment, B. burgdorferi B31, UniProt O50835 206-348, looked up) SNRYQSYLEGVKYNVDSAIQTITKIYNTYTLFSTKLTQMYSTRLDNFAKAKAKEEAAKFTKEDLEKNFKTLLNYIQVSVKTAANFVYINDTHAKRKLENIEAEIKTLIAKIKEQSNLYEAYAAIVASILLMRDSLKEVQGIID | 510 ± 200 nM | 0.026 s⁻¹ | 37000 M⁻¹ s⁻¹ |
| BBK32-C L236A (domain or fragment, B. burgdorferi B31, UniProt O50835 206-348, looked up) SNRYQSYLEGVKYNVDSAIQTITKIYNTYTAFSTKLTQMYSTRLDNFAKAKAKEEAAKFTKEDLEKNFKTLLNYIQVSVKTAANFVYINDTHAKRKLENIEAEIKTLIAKIKEQSNLYEAYKAIVTSILLMRDSLKEVQGIID | 0.15 nM | 3.5e-05 s⁻¹ | 230000 M⁻¹ s⁻¹ |
| BBK32-C Y323A (domain or fragment, B. burgdorferi B31, UniProt O50835 206-348, looked up) SNRYQSYLEGVKYNVDSAIQTITKIYNTYTLFSTKLTQMYSTRLDNFAKAKAKEEAAKFTKEDLEKNFKTLLNYIQVSVKTAANFVYINDTHAKRKLENIEAEIKTLIAKIKEQSNLAEAYKAIVTSILLMRDSLKEVQGIID | 0.87 ± 0.06 nM | 0.00016 s⁻¹ | 180000 M⁻¹ s⁻¹ |
| BBK32-C E324A (domain or fragment, B. burgdorferi B31, UniProt O50835 206-348, looked up) SNRYQSYLEGVKYNVDSAIQTITKIYNTYTLFSTKLTQMYSTRLDNFAKAKAKEEAAKFTKEDLEKNFKTLLNYIQVSVKTAANFVYINDTHAKRKLENIEAEIKTLIAKIKEQSNLYAAYKAIVTSILLMRDSLKEVQGIID | 1.6 ± 0.07 nM | 0.00034 s⁻¹ | 200000 M⁻¹ s⁻¹ |
| BBK32-C T331A (domain or fragment, B. burgdorferi B31, UniProt O50835 206-348, looked up) SNRYQSYLEGVKYNVDSAIQTITKIYNTYTLFSTKLTQMYSTRLDNFAKAKAKEEAAKFTKEDLEKNFKTLLNYIQVSVKTAANFVYINDTHAKRKLENIEAEIKTLIAKIKEQSNLYEAYKAIVASILLMRDSLKEVQGIID | 0.73 ± 0.3 nM | 8.2e-05 s⁻¹ | 140000 M⁻¹ s⁻¹ |
| BBK32-C T242A-Y245A (domain or fragment, B. burgdorferi B31, UniProt O50835 206-348, looked up) SNRYQSYLEGVKYNVDSAIQTITKIYNTYTLFSTKLAQMASTRLDNFAKAKAKEEAAKFTKEDLEKNFKTLLNYIQVSVKTAANFVYINDTHAKRKLENIEAEIKTLIAKIKEQSNLYEAYKAIVTSILLMRDSLKEVQGIID | 57 ± 0.1 nM | 0.012 s⁻¹ | 210000 M⁻¹ s⁻¹ |
| BBK32-C N251A (domain or fragment, B. burgdorferi B31, UniProt O50835 206-348, looked up) SNRYQSYLEGVKYNVDSAIQTITKIYNTYTLFSTKLTQMYSTRLDAFAKAKAKEEAAKFTKEDLEKNFKTLLNYIQVSVKTAANFVYINDTHAKRKLENIEAEIKTLIAKIKEQSNLYEAYKAIVTSILLMRDSLKEVQGIID | 0.61 ± 0.21 nM | 0.00011 s⁻¹ | 180000 M⁻¹ s⁻¹ |
| BBK32-C L236A-T239A (domain or fragment, B. burgdorferi B31, UniProt O50835 206-348, looked up) SNRYQSYLEGVKYNVDSAIQTITKIYNTYTAFSAKLTQMYSTRLDNFAKAKAKEEAAKFTKEDLEKNFKTLLNYIQVSVKTAANFVYINDTHAKRKLENIEAEIKTLIAKIKEQSNLYEAYKAIVTSILLMRDSLKEVQGIID | 0.18 nM | 4.3e-05 s⁻¹ | 240000 M⁻¹ s⁻¹ |
| BBK32-C Y245A (domain or fragment, B. burgdorferi B31, UniProt O50835 206-348, looked up) SNRYQSYLEGVKYNVDSAIQTITKIYNTYTLFSTKLTQMASTRLDNFAKAKAKEEAAKFTKEDLEKNFKTLLNYIQVSVKTAANFVYINDTHAKRKLENIEAEIKTLIAKIKEQSNLYEAYKAIVTSILLMRDSLKEVQGIID | 1.3 ± 0.01 nM | 0.00035 s⁻¹ | 280000 M⁻¹ s⁻¹ |
| BBK32-C T239A (domain or fragment, B. burgdorferi B31, UniProt O50835 206-348, looked up) SNRYQSYLEGVKYNVDSAIQTITKIYNTYTLFSAKLTQMYSTRLDNFAKAKAKEEAAKFTKEDLEKNFKTLLNYIQVSVKTAANFVYINDTHAKRKLENIEAEIKTLIAKIKEQSNLYEAYKAIVTSILLMRDSLKEVQGIID | 0.17 nM | 4.4e-05 s⁻¹ | 260000 M⁻¹ s⁻¹ |
